Results reported in patent US20240092918A1 (Novartis, published 2024).

Columns and labels:
[1] = biological target: T1, Human CCR7 (human, UniProt P32248 25-378); experiment: cell-based or functional assay
T1 sequence: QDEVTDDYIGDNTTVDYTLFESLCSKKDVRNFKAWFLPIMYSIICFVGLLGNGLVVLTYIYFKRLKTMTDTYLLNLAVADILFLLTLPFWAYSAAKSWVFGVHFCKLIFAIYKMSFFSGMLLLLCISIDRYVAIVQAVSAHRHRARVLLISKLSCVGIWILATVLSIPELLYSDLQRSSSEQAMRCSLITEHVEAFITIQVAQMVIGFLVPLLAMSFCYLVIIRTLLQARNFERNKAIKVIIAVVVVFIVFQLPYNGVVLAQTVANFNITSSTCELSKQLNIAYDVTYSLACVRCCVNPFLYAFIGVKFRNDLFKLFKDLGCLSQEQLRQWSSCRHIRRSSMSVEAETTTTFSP

[2] = biological target: T1, Human CCR7; experiment: FACS binding assay
[3] = biological target: T1, Human CCR7; experiment: cell-based or functional assay; remark: listed apart in the source
[4] = biological target: T1, Human CCR7; experiment: cell-based or functional assay; remark: listed apart in the source
[5] = biological target: T1, Human CCR7; experiment: cell-based or functional assay; remark: listed apart in the source
[6] = biological target: T1, Human CCR7; experiment: cell-based or functional assay; remark: listed apart in the source

B1: 121G12 non-humanized CysMab (antibody, human IgG1, kappa, V domains shown)
VH: EVQLVESGGGLVKPGGSLKLSCAASGFTFSTYAMSWVRQTPEKRLEWVATISDGGSYSYYPDNVKGRFTISRDNAKNNLYLQMSHLKSEDTAMYYCARRGSRYEEYYVMDYWGQGTSVTVSS
VL: DIVLTQSPATLSVTPGDSVSLSCRASQSISNNLHWYQQKSHESPKLLIKYASQSISGIPSRFSGSGSGTDFTLSINSVETEDFGMYFCQQSNSWLTFGAGTKLGLKR
[1]
  ADCC activity; IC50 (nM); surrogate ADCC reporter assay, JVM2 target cells and Jurkat-V158 effector cells: 0.077 nM

B2: 674J13.CysMab.DAPA.AURIX2 (antibody, human IgG1, kappa, V domains shown)
VH: DVQLQESGPGLVKPSQTLSLTCTVSGYSITSGYSWHWIRQHPGKGLEWMAHIHSSGSTNYNPSLKSRITISRDTSKNQFSLKLSSVTAADTAVYYCARGGVQAFAYWGQGTLVTVSS
VL: EIVLTQSPATLSASPGERVTMSCSASSSVIYMHWYQQKPGQAPRRWIYDTSKLASGVPARFSGSGSGTDYTLTISSMEPEDAAVYYCQQWSSNPLTFGQGTKLEIKR
modifications: DAR LC 0.03; AURIX2 on the engineered cysteines; DAR HC 3.93
notes: also called 674J13.DAPA.AURIX2
[2]
  geometric mean fluorescence intensity, difference from the unconjugated antibody: ≤ 20%
[3]
  ADC activity in cell viability assay; IC50 (nM); CML-T1 cells (~29,000 CCR7 receptors): 3.78 nM
  ADC activity in cell viability assay; IC50 (nM); DEL cells (~100,000 CCR7 receptors): 0.242 nM
  ADC activity in cell viability assay; IC50 (nM); KE97 cells (~100,000 CCR7 receptors): 0.102 nM
  ADC activity in cell viability assay; IC50 (nM); SR786 cells (~28,000 CCR7 receptors): 2.74 nM

B3: 506E15 Parental (antibody, V domains shown)
VH: EVMLVESGGGLVKPGGSLKLSCAASGFTFSSYAMSWIRQTPEKRLEWVATISSGGSFTYYPDSVKGRFTISRDNVKNTLYLQMSSLRSEDTAMYYCARRASTVVGTDFDVWGAGTTVTVSS
VL: DIQMTQSPSSLSASLGERVSLTCRASQDIGSSLNWLQQEPDGTIKRLIYATSSLDSGVPKRFSGSRSGSDYSLTISSLESEDFVVYYCLQYASSPPTFGGGTKLEIK
[4]
  506E15 IC50 (nM); ADCC reporter assay, ALL-SIL cells (6,200 CCR7 receptors): 0.008 nM
  506E15 IC50 (nM); ADCC reporter assay, CMLT-1 cells (29,000 CCR7 receptors): 0.011 nM
  506E15 IC50 (nM); ADCC reporter assay, DEL cells (62,000 CCR7 receptors): 0.074 nM
  506E15 IC50 (nM); ADCC reporter assay, DND-41 cells (1,700 CCR7 receptors): 0.002 nM
  506E15 IC50 (nM); ADCC reporter assay, JVM2 cells (66,500 CCR7 receptors): 0.046 nM
  506E15 IC50 (nM); ADCC reporter assay, Jurkat V158 cells (3,400 CCR7 receptors): 0.004 nM
  506E15 IC50 (nM); ADCC reporter assay, MOTN-1 cells (64,600 CCR7 receptors): 0.077 nM
  506E15 IC50 (nM); ADCC reporter assay, PEER cells (8,700 CCR7 receptors): 0.038 nM
  506E15 IC50 (nM); ADCC reporter assay, SR786 cells (27,800 CCR7 receptors): 0.011 nM

B4: 121G12.CysMab.DAPA.MPET.DM4 (antibody, human IgG1, kappa)
heavy: EVQLVESGGGLVKPGGSLRLSCAASGFTFSTYAMSWVRQAPGKGLEWVATISDAGSYSYYPDNVKGRFTISRDNAKNSLYLQMNSLRAEDTAVYYCARRGSRYEEYYVMDYWGQGTTVTVSSASTKGPSVFPLAPSSKSTSGGTAALGCLVKDYFPCPVTVSWNSGALTSGVHTFPAVLQSSGLYSLSSVVTVPSSSLGTQTYICNVNHKPSNTKVDKRVEPKSCDKTHTCPPCPAPELLGGPSVFLFPPKPKDTLMISRTPEVTCVVVAVSHEDPEVKFNWYVDGVEVHNAKTKPREEQYNSTYRVVSVLTVLHQDWLNGKEYKCKVSNKALAAPIEKTISKAKGQPREPQVYTLPPSREEMTKNQVSLTCLVKGFYPCDIAVEWESNGQPENNYKTTPPVLDSDGSFFLYSKLTVDKSRWQQGNVFSCSVMHEALHNHYTQKSLSLSPGK
light: EIVLTQSPATLSVSPGERVTLSCRASQSISNNLHWYQQKPGQAPRLLIKYASQSISGIPARFSGSGSGTDFTLTISSVEPEDFGVYFCQQSSSWLTFGQGTKLEIKRTVAAPSVFIFPPSDEQLKSGTASVVCLLNNFYPREAKVQWKVDNALQSGNSQESVTEQDSKDSTYSLSSTLTLSKADYEKHKVYACEVTHQGLSSPVTKSFNRGEC
modifications: MPET.DM4 linker-drug on the engineered cysteines (E152C, S375C, EU numbering); DAR 3.79
notes: also called 121G12.CysMab.DAPA.MPET.DM4 (DAR 3.8); MPET.DM4 ADC
[2]
  geometric mean fluorescence intensity, difference from the unconjugated antibody: ≤ 20%
[5]
  In vitro cytotoxic activity, IC50 (nM); DEL cells (relative receptor density 67%): 2.28 nM
  In vitro cytotoxic activity, IC50 (nM); JVM2 cells (relative receptor density 79%): 4.62 nM
  In vitro cytotoxic activity, IC50 (nM); KE97 cells (relative receptor density 100%): 2.24 nM
  In vitro cytotoxic activity, IC50 (nM); L540 cells (relative receptor density 175%): 4.9 nM
  In vitro cytotoxic activity, IC50 (nM); MOTN1 cells (relative receptor density 67%): 4.24 nM
  In vitro cytotoxic activity, IC50 (nM); Mec-2 cells (relative receptor density 15%): > 20 nM
  In vitro cytotoxic activity, IC50 (nM); OCI-Ly3 cells (relative receptor density 43%): 6.42 nM
  In vitro cytotoxic activity, IC50 (nM); PEER cells (relative receptor density 2%): > 20 nM
  In vitro cytotoxic activity, IC50 (nM); SUPHD1 cells (relative receptor density 310%): 1.69 nM

B5: 506E15 non-humanized CysMab (antibody, human IgG1, kappa, V domains shown)
VH: B3 VH
VL: DIQMTQSPSSLSASLGERVSLTCRASQDIGSSLNWLQQEPDGTIKRLIYATSSLDSGVPKRFSGSRSGSDYSLTISSLESEDFVVYYCLQYASSPPTFGGGTKLEIKR
[1]
  ADCC activity; IC50 (nM); surrogate ADCC reporter assay, JVM2 target cells and Jurkat-V158 effector cells: 0.131 nM

B6: 674J13 non-humanized CysMab (antibody, human IgG1, kappa, V domains shown)
VH: DVQLQESGPDLVKPSQSLSLTCTVTGYSITSGYSWHWIRQFPGNKLEWMAHIHSSGSTNYNPSLKSRISIIRDTSKNLFFLQLNSVTTEDTATYYCARGGVQAFAYWGQGTLVTVSA
VL: QIVLTQSPAIMSASPGEKVTMTCSASSSVIYMHWYQQKSGTSPKRWIYDTSKLASGVPARFSGSGSGTSYSLTISSMEAEDAATYYCQQWSSNPLTFGAGTTLELKR
[1]
  ADCC activity; IC50 (nM); surrogate ADCC reporter assay, JVM2 target cells and Jurkat-V158 effector cells: 1.09 nM

B7: 121G12.DAPA.sSPDB.DM4 (antibody, human IgG1, kappa)
heavy: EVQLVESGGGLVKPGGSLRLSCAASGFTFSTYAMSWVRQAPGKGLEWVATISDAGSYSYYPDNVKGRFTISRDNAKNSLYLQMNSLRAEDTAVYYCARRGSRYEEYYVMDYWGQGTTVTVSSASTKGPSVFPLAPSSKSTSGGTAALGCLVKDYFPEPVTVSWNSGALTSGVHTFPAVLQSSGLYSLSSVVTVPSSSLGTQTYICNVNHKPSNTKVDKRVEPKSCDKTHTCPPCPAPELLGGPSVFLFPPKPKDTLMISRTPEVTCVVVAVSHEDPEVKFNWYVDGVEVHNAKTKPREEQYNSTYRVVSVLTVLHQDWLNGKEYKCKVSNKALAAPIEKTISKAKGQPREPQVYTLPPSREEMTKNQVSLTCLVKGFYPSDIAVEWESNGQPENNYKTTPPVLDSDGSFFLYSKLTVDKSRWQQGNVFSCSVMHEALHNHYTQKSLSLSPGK
light: B4 light
modifications: sulfo-SPDB-DM4 on endogenous lysines, sites not defined; sulfo-SPDB-DM4 on endogenous lysines, sites not defined (DAR 3.6 as prepared; labelled DAR3.9 in the assays)
notes: also called 121G12.DAPA.sSPDB.DM4 (DAR3.9); sSPDB.DM4 ADC
[2]
  geometric mean fluorescence intensity, difference from the unconjugated antibody: ≤ 20%

B8: 506E15 (Humanized CysMab DAPA) (antibody, human IgG1, kappa, V domains shown)
VH: EVQLVESGGGLVKPGGSLRLSCAASGFTFSSYAMSWIRQAPGKGLEWVATISSGGSFTYYPDSVKGRFTISRDNAKNSLYLQMNSLRAEDTAVYYCARRASTVVGTDFDVWGQGTTVTVSS
VL: DIQMTQSPSSLSASVGDRVTLTCRASQDIGSSLNWLQQKPGKAIKRLIYATSSLDSGVPSRFSGSRSGTDYTLTISSLQPEDFVVYYCLQYASSPPTFGGGTKLEIKR
[6]
  pHrodo (6 h MFI), uptake of pHrodo-labelled antibody at 5 ug/ml, CD4+ T cells (2000 receptors): 429 MFI
  pHrodo (6 h MFI), uptake of pHrodo-labelled antibody at 5 ug/ml, CMLT1 cells (19583 receptors): 465 MFI
  pHrodo (6 h MFI), uptake of pHrodo-labelled antibody at 5 ug/ml, DEL cells (110685 receptors): 3060 MFI
  pHrodo (6 h MFI), uptake of pHrodo-labelled antibody at 5 ug/ml, JVM3 cells (8717 receptors): 238 MFI
  pHrodo (6 h MFI), uptake of pHrodo-labelled antibody at 5 ug/ml, Jeko-1 cells (28852 receptors): 908 MFI
  pHrodo (6 h MFI), uptake of pHrodo-labelled antibody at 5 ug/ml, KE97 cells (152093 receptors): 2720 MFI
  pHrodo (6 h MFI), uptake of pHrodo-labelled antibody at 5 ug/ml, L540 cells (167549 receptors): 16100 MFI
  pHrodo (6 h MFI), uptake of pHrodo-labelled antibody at 5 ug/ml, L1236 cells (61602 receptors): 3130 MFI
  pHrodo (6 h MFI), uptake of pHrodo-labelled antibody at 5 ug/ml, MJ cells (111121 receptors): 3870 MFI
  pHrodo (6 h MFI), uptake of pHrodo-labelled antibody at 5 ug/ml, MOTN1 cells (84200 receptors): 2900 MFI
  pHrodo (6 h MFI), uptake of pHrodo-labelled antibody at 5 ug/ml, Mec2 cells (50840 receptors): 3090 MFI

B9: 684E12 non-humanized CysMab (antibody, human IgG1, kappa, V domains shown)
VH: EVHLVESGGGLVKPGGSLKLSCAASGFTFSNFAMSWVRQTPEKRLEWVATISTGGTYTYYPDSVKGRFTISRDNAKKTLYLQMSSLRSEDTAMYYCTRRGYDGVDKWGQGTTLTVSS
VL: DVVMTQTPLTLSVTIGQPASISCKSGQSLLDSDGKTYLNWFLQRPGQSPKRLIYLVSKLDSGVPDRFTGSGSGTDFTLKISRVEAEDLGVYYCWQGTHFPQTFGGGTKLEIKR
[1]
  ADCC activity; IC50 (nM); surrogate ADCC reporter assay, JVM2 target cells and Jurkat-V158 effector cells: 2.63 nM

B10: 506E15 humanized CysMab (Fc Wild Type) (antibody, human IgG1, V domains shown)
VH: B8 VH
VL: DIQMTQSPSSLSASVGDRVTLTCRASQDIGSSLNWLQQKPGKAIKRLIYATSSLDSGVPSRFSGSRSGTDYTLTISSLQPEDFVVYYCLQYASSPPTFGGGTKLEIK
[1]
  ADCC activity; IC50 (nM); surrogate ADCC reporter assay, JVM2 target cells and Jurkat-V158 effector cells: 0.054 nM

B11: 684E12.SMCC.DM1 (antibody, V domains shown)
VH: B9 VH
VL: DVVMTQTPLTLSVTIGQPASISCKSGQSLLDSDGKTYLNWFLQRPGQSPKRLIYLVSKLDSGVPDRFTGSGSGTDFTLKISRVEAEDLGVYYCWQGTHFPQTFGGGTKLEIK
modifications: SMCC-DM1 on lysines of the antibody, sites not defined; DAR 2.6
notes: also called parental 684E12.SMCC.DM1 (DAR2.6)
[2]
  geometric mean fluorescence intensity, difference from the unconjugated antibody: ≤ 20%

B12: 506E15.CysMab.DAPA.AURIX2 (antibody, human IgG1, kappa, V domains shown)
VH: B8 VH
VL: B8 VL
modifications: AURIX2 on the engineered cysteines; DAR 3.80
notes: also called 506E15.DAPA.AURIX2
[2]
  geometric mean fluorescence intensity, difference from the unconjugated antibody: ≤ 20%

B13: 121G12.CysMab.AURIX1 (antibody, human IgG1, kappa, V domains shown)
VH: B1 VH
VL: B1 VL
modifications: AURIX1 on the engineered cysteines; DAR 3.80
notes: also called 121G12.AURIX1; 121G12 parental.Cys-Mab.wild type Fc.hIgG1.AURIX1
[2]
  geometric mean fluorescence intensity, difference from the unconjugated antibody: ≤ 20%
